In article PMC9482650, “Quantitative fragmentomics allow affinity mapping of interactomes” (Nature Communications, 2022):
Changes are numbered by the printed parent chain.

Legend:
Experiment in all cases: holdup assay
Design in all cases: key: below the threshold = too weak to quantify, mostly under pKd 3.1 to 4
[1] = biological target: T1, APBA2_1, Q99767
T1 sequence (Q99767 563-664, limits assumed, looked up): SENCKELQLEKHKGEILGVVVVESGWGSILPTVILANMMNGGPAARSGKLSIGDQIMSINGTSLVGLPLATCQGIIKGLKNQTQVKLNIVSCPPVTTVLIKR

[2] = biological target: ARHGEF12, Q9NZN5-2
ARHGEF12, Q9NZN5-2, sequence (Q9NZN5 other isoform, or with tags, fused parts or gaps): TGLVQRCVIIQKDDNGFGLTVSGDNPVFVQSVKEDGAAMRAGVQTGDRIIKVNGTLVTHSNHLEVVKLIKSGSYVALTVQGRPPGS

[3] = biological target: CASK, O14936
CASK, O14936, sequence (O14936 487-570): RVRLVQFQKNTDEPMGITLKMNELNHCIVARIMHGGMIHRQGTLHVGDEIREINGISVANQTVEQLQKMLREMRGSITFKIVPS

[4] = biological target: T2, DLG3_1, Q92796
T2 sequence (Q92796 125-227, limits assumed, looked up): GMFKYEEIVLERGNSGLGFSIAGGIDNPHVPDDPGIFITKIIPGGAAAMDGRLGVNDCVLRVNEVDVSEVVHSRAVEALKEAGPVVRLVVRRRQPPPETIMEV

[5] = biological target: T3, DLG3_2, Q92796
T3 sequence (Q92796 221-321, limits assumed, looked up): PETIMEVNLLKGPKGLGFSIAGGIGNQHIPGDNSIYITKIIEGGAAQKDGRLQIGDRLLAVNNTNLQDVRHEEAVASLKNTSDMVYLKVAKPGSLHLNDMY

[6] = biological target: DLG5_1, Q8TDM6
DLG5_1, Q8TDM6, sequence (Q8TDM6 617-713): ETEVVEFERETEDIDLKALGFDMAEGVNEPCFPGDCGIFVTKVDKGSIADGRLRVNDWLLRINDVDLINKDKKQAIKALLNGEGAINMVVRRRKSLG

[7] = biological target: FRMPD4, Q14CM0
FRMPD4, Q14CM0, sequence (Q14CM0 67-160): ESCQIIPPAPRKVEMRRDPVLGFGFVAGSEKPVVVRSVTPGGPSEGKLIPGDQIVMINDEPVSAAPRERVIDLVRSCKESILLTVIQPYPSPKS

[8] = biological target: GORASP2, Q9H8Y8
[9] = biological target: GRID2IP_2, A4D2P6
GRID2IP_2, A4D2P6, sequence (A4D2P6 272-370): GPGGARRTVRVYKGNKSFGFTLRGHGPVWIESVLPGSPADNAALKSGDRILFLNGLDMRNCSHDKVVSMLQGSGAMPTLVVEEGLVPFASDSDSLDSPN

[10] = biological target: Inadl_1, Q8NI35
Inadl_1, Q8NI35, sequence (Q8NI35 113-229): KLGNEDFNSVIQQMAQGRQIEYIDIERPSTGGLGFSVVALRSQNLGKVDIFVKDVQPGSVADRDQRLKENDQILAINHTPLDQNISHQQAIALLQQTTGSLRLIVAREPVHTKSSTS

[11] = biological target: T4, LIN7A, O14910
T4 sequence (O14910 103-200, limits assumed, looked up): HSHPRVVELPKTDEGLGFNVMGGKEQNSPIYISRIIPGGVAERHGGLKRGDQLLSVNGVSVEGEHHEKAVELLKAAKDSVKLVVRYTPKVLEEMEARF

[12] = biological target: T5, LIN7B, Q9HAP6
T5 sequence (Q9HAP6 88-185, limits assumed, looked up): T4 sequence (O14910 103-200, limits assumed, looked up) with S2A, V20I, I35V, E42D, H65Q, K77Q, D78G, K89R

[13] = biological target: MAGI1_1, Q96QZ7
MAGI1_1, Q96QZ7, sequence (Q96QZ7 1-106): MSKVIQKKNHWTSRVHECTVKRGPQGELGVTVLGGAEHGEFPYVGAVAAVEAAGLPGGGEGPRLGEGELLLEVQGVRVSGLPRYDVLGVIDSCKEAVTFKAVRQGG

[14] = biological target: MAST2, Q6P0Q8
MAST2, Q6P0Q8, sequence (Q6P0Q8 1099-1202): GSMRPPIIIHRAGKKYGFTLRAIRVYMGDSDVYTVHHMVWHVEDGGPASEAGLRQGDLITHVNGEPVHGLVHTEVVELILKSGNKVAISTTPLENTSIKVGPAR

[15] = biological target: NHERF4_2, Q86UT5
NHERF4_2, Q86UT5, sequence (Q86UT5 220-308): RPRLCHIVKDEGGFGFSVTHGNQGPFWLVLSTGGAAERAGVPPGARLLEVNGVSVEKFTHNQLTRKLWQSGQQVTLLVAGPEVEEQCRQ

[16] = biological target: T6, PDZRN3_1, Q9UPQ7
T6 sequence (Q9UPQ7 244-349, limits assumed, looked up): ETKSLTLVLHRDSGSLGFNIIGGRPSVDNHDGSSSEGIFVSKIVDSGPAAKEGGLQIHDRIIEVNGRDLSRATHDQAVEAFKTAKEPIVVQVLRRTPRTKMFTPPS

[17] = biological target: PICK1, Q9NRD5
PICK1, Q9NRD5, sequence (Q9NRD5 17-115): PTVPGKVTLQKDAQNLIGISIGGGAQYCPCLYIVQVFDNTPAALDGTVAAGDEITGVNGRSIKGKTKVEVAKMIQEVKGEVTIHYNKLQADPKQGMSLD

[18] = biological target: T7, RADIL, Q96JH8
T7 sequence (Q96JH8 971-1071, limits assumed, looked up): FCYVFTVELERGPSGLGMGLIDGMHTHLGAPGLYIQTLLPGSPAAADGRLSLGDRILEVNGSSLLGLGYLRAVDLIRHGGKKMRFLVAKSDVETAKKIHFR

[19] = biological target: T8, SNTA1, Q13424
T8 sequence (Q13424 82-180, limits assumed, looked up): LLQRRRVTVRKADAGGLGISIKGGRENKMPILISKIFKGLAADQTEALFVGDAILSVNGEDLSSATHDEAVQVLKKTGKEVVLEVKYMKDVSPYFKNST

[20] = biological target: T9, SNTG1, Q9NSN8
T9 sequence (Q9NSN8 52-150, limits assumed, looked up): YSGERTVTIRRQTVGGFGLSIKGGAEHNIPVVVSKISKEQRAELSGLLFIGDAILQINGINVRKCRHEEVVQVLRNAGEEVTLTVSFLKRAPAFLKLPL

[21] = biological target: T10, SNTG2, Q9NY99
T10 sequence (Q9NY99 68-166, limits assumed, looked up): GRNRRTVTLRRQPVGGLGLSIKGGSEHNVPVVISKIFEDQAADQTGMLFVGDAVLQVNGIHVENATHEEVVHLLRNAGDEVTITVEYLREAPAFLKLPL

[22] = biological target: T11, TIAM2, Q8IVF5
T11 sequence (Q8IVF5 885-986, limits assumed, looked up): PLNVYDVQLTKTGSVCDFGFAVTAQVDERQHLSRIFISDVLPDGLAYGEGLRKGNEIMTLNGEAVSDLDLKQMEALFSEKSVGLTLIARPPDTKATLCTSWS

[23] = biological target: TJP1_2, Q07157
TJP1_2, Q07157, sequence (Q07157 181-274): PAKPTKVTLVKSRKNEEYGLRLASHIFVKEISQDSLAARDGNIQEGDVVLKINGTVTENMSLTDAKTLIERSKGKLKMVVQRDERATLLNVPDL

[24] = biological target: T12, TX1BP3, O14907
T12 sequence (O14907 10-122, limits assumed, looked up): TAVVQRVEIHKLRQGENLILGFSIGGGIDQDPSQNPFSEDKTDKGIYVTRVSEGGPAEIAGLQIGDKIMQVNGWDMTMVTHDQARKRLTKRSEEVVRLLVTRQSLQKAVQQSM

[25] = plain residues with an end cap or a label only (N-terminal biotin on a linker: ado-ado)
[26] = plain residues with an end cap or a label only (N-terminal biotin on a linker: ahx)
[27] = plain residues with an end cap or a label only (N-terminal biotin on a linker: (peg)3)

## AEASVACSLC [PTGIR, P43119]
[1]; [25]
  pKd: below the threshold
[2]; [25]
  pKd: 3.53
[3]; [25]
  pKd: below the threshold
[4]; [25]
  pKd: below the threshold
[5]; [25]
  pKd: 3.69
[6]; [25]
  pKd: below the threshold
[7]; [25]
  pKd: below the threshold
[8]; [25]
  pKd: below the threshold
[9]; [25]
  pKd: 3.77
[10]; [25]
  pKd: below the threshold
[11]; [25]
  pKd: below the threshold
[12]; [25]
  pKd: below the threshold
[13]; [25]
  pKd: below the threshold
[14]; [25]
  pKd: 4.32
[15]; [25]
  pKd: below the threshold
[16]; [25]
  pKd: below the threshold
[17]; [25]
  pKd: below the threshold
[18]; [25]
  pKd: 3.94
[19]; [25]
  pKd: below the threshold
[20]; [25]
  pKd: below the threshold
[21]; [25]
  pKd: below the threshold
[22]; [25]
  pKd: 3.75
[23]; [25]
  pKd: below the threshold
[24]; [25]
  pKd: below the threshold

## TQKFRASTAL [FRMPD1, Q5SYB0]
[1]; [26]
  pKd: below the threshold
[2]; [26]
  pKd: 4.79
[3]; [26]
  pKd: below the threshold
[4]; [26]
  pKd: below the threshold
[5]; [26]
  pKd: below the threshold
[6]; [26]
  pKd: below the threshold
[7]; [26]
  pKd: 3.73
[8]; [26]
  pKd: below the threshold
[9]; [26]
  pKd: 4.18
[10]; [26]
  pKd: below the threshold
[11]; [26]
  pKd: below the threshold
[12]; [26]
  pKd: below the threshold
[13]; [26]
  pKd: below the threshold
[14]; [26]
  pKd: 5.36
[15]; [26]
  pKd: below the threshold
[16]; [26]
  pKd: 4.16
[17]; [26]
  pKd: below the threshold
[18]; [26]
  pKd: below the threshold
[19]; [26]
  pKd: below the threshold
[20]; [26]
  pKd: below the threshold
[21]; [26]
  pKd: below the threshold
[22]; [26]
  pKd: below the threshold
[23]; [26]
  pKd: below the threshold
[24]; [26]
  pKd: 4.17

## RRRRSQSRESQC [HBV-HBc, P03193]
[1]; [27]
  pKd: below the threshold
[2]; [27]
  pKd: below the threshold
[3]; [27]
  pKd: below the threshold
[4]; [27]
  pKd: 3.59
[5]; [27]
  pKd: 4.56
[6]; [27]
  pKd: below the threshold
[7]; [27]
  pKd: below the threshold
[8]; [27]
  pKd: below the threshold
[9]; [27]
  pKd: below the threshold
[10]; [27]
  pKd: below the threshold
[11]; [27]
  pKd: below the threshold
[12]; [27]
  pKd: 3.7
[13]; [27]
  pKd: below the threshold
[14]; [27]
  pKd: 4.26
[15]; [27]
  pKd: below the threshold
[16]; [27]
  pKd: 3.89
[17]; [27]
  pKd: 4.05
[18]; [27]
  pKd: below the threshold
[19]; [27]
  pKd: 4.44
[20]; [27]
  pKd: below the threshold
[21]; [27]
  pKd: 4.21
[22]; [27]
  pKd: 3.86
[23]; [27]
  pKd: below the threshold
[24]; [27]
  pKd: 4.14
